The labels stand for the following.
B1: EBOV-515 mAb, Alexa Fluor 647-labeled (antibody, V domains shown)
VH: QVQLQESGPGLVKPSQTLSLTCTVSGGSINSAGYYWTWIRQHPGKGLEWIGYIDYTGRTYYNPSLESRVIISIDTSKNHFSLRLTSVSAADTAVYYCARESSWVSELGRDNWGQGTLVTVSS
VL: EIVMTQSPATLPVSPGEGATLSCRASQSVFTNLAWYQQKPGQAPRLLIYDASTRATGIPARFSGSGSGTEFTLTISSLQSEDFAVYYCQQYNNWPRTYGQGTRVEVK
B2: EBOV-442 mAb (antibody, V domains shown)
VH: EVQLVESGGGLVKPGGSLRLSCTGSGGTGFTFKYAGMSWVRQAPGKGPEWIGRIKSRIDGGTTDYAAPVKDRFIVSRDDSRNTLYLQMNSLKTEDTAVYYCATGSGKGPSASFGESYYYYDFINVWGKGTTVTVSS
VL: ESVLTQSPGTLSLSPGERATLSCRASQSISRKYLAWYQQKPGQAPRLLIYGSSSRATGIPDRFSGSGSGTDFTLTISRLEPEDFAVYYCHQYESSPWTFGQGTKVEIK
notes: IgG1; source: ExpiCHO, transiently transfected, purified (HiTrap MabSelect Sure)
B3: EBOV-296 mAb (antibody, V domains shown)
VH: QVQLVESGPGLVKPSQTLSLICTVSGGSISSGDFYWSWIRQPPGKGLEWIGFFYYSGITYYNPSLKSRVSISRDTSTNQFSLKLRSVTAADTAVYYCARVRGGRITLGQGDMYYYSGMDVWGQGTLVTVSS
VL: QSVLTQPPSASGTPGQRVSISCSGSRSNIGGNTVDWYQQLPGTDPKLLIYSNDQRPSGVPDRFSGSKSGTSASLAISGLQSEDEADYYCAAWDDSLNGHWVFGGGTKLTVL
B4: BDBV-289 mAb (antibody, V domains shown)
VH: QVQLVQSGAEVKKPGSSVKVSCKASGATFGSDTVTWVRQAPGQGLEWMGGIIPFFGEANYAQRFQGRVTITADKSTNTAYMELSSLRSEDTAVYFCARQINEMATFGEIHYYTYMDVWGQGTLVTVSS
VL: GSELTQDPAVSVALGQTVRITCQGDSLRNYYASWYQQKPRQAPVLVFYGKNNRPSGIPDRFSGSSSGNTASLTISGAQAEDEADYYCNSRDSSSNHLVFGGGTKLTVL
notes: source: HEK-293F, transiently transfected, purified (mAb Select, SEC)
B5: EBOV-548 mAb (antibody, V domains shown)
VH: QVQVEESGGGVVQPGGSLRLSCAASGFMFSNYGMHWVRQAPGKGLEWMAFIRYDDSKKFYADSVKGRFTISRDNSKNTLYLQMNSLRAEDTALYYCAKELLQVYTSAWGEGHSYYYALDVWGLGTAVTVSS
VL: DIQMTQSPSSVSASVGDRVTITCRASQDISNWLAWYQQKPGKAPELLIYTASILQSGVSSRFSGSGSGTDFTLTISSLQPEDSATYYCQQGKSFPYTFGQGTKLEIK
B6: EBOV-237 mAb (antibody, V domains shown)
VH: QVQLQESGPGLVKPSGTLSLTCAVSGGSISNGIWWSWVRQPPGKGLEWIGEIYHSGSTNYSPSLKSRVTISLDKSKNQFSLKLNSVTAADTAVYYCARAPSQFDFSDWLVPQGAMFRGHYIDYWGQGTLVTVSS
VL: not shown
notes: as for B2
B7: BDBV-43 mAb (antibody, V domains shown)
VH: QVQLVQSGAEVKKPGSSVKVSCRASGDSFSRKYGISWVRQAPGQGFEWMGTIMPIVGLTTSAQKFQGRVTITADKSTSTAHMELNSLTSEDTAIYYCARDEIIGARPHWFDSWGQGTLVTVSS
VL: EIVMTQSPAIMSVSPGKRATLSCRASQSVSSNLAWYQRKPGQAPRLLIYGSSTRATGIPARFSGSGSGTEFTLTISSLQSEDFAVYYCLQYYNWPRTFGQGTKVEIK
notes: as for B4
B8: EBOV-437 mAb (antibody, V domains shown)
VH: QVQLVQSGAEVKKPGSSVKVSCKASGGTFSRDIFSWVRQAPGQGLEWMGGIIPIFGTANYAQKFQGRVTITADKSTSTVFMELSGLRSEDTAVYFCARGPPLRGERSWFGESEKYDYFYMDVWGKGTTVTVSS
VL: QIVLTQSPGTLSLSPGERATLSCRASQSVSNSYLAWYQQKPGQAPRLLIYGASSRATGIPDRFSGSGSGTDFTLSISRLEPEDFAVYYCQQYGTSPCTFGQGTKLEIK
notes: as for B2
B9: BDBV-329 mAb (antibody, V domains shown)
VH: QVQLVQSGAEVKKPGSSVKVSCKASGGTFDTYAISWVRQAPGQGLEWMGGIIPVLGIVDYAQKFQGRVTITAAKFTNIAYMELSSLRSEDAAVYYCARGLRSLSPRGQEGPTPAPGWRRAQYHYYYMDVWGTGTLVTVSS
VL: B8 VL with Q1E, L4M, N31S, S32N, T70P, S75T, T94S, C97G, Q101G, L105V
notes: as for B2
B10: EBOV-293 mAb (antibody, V domains shown)
VH: QVQLVQSGAEVKKPGSSVKVSCKASGGTFIDYTYNWVRQAPGQGLVWMGRVVPGLGLSSYAQQFEDRVTITAAKSTSTVYMELRGLTSEDTAMYYCARDTASFGWLPFAFWGQGTLVTVSS
VL: QTVMTQSPGTLSLSPGERATLSCGVSQSISSTYFAWYQQKVGQAPRLLIYGASNRASGIPDRFSGSASGTDFTLTISRVEPEDFAVYYCQQYGSSPTFGQGTRLEIK

Where a chain is given by its changes, count along the chain named.

The target of the first assay is Cleaved EBOV GP (GPCL) displayed on Jurkat cells (Zaire ebolavirus, Makona (A0A0E3TM45), UniProt A0A0E3TM45, strain). Briefly: flow cytometry on cells. As to conditions: one partner purified. (In flow cytometry, cells or beads pass a laser one at a time.)
On to B1, for which the binding result is reported as “binds”. On to B2, for which the binding result is “binds”.

In another assay the target is T1, EBOV sGP (Mayinga) (Zaire ebolavirus (strain Mayinga-76) …, UniProt P60170).
T1 construct: source: HEK-293F, transiently transfected, purified (Strep-Tactin, SEC S200 increase)
Briefly: ELISA. As to conditions: both partners purified. (ELISA stands for enzyme-linked immunosorbent assay.)
For the molecule B3, the binding result is “binds”.

Take B4: the binding result was “binds”. On the same count and under the same terms, the result for B2 reads “binds”. As to B5, the binding result is “binds”. On to B6, for which the binding result is on record as “binds”. On the same count and under the same terms, the result for B7 reads “binds”.

Consider B8, for which the binding result is recorded as “binds”. B9: the binding result is “binds”. On the same count and under the same terms, the result for B10 reads “binds”.

For the origin of these results see article doi:10.1101/2020.10.14.340026 (bioRxiv, 2020).
